Residue numbers refer to the chain shown, from its start. Names and notes keep the numbering of the source.
What was measured:
[1] = biological target: T1, human PAR2 on cells (endogenous in A549 cells; overexpressed in 1321N1-hPAR2-c18 cells) (human, UniProt P55085 37-397); test: cell-based or functional assay
T1 sequence: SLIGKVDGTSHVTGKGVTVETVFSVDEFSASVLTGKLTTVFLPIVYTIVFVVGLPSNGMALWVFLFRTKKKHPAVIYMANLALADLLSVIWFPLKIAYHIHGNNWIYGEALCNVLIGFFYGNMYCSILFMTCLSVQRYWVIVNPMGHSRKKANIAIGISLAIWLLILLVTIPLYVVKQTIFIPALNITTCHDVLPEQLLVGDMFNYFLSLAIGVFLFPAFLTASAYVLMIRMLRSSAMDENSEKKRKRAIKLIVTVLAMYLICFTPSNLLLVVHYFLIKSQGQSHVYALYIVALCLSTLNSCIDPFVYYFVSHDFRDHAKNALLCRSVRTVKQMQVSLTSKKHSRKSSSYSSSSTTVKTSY

[2] = biological target: T2, recombinant biotinylated human PAR2 extracellular domain (residues 1-75), N-terminal AviTag, C-terminal Flag … (human, UniProt P55085 26-75, biotin on the AviTag (enzymatic biotinylation)); test: HTRF competition with Dylight650-Par0067 IgG, IgG
T2 construct: also called Bio-human-PAR2 ECD; human PAR2 ECD; not shown: N-terminal AviTag (Avidity LLC); C-terminal Flag and poly Histidine tags
Experimental: (§1) Parent Par0067 IgG (used as a reference/control in all assays) was pre-diluted to give a 2000 nM stock in each of the two different pH assay buffers (in order to give a top final assay IgG concentration of 500 nM). All test, or other reference/control IgG were tested from a top final assay concentration of ¼ of the neat undiluted sample (i.e. no pre-dilution step was performed). Duplicate 11 point 1:3 serial dilutions then were prepared on 384 well polypropylene Greiner plates in each of the two assay buffers (pH 7.4 & 6.0). 5 μl per well was transferred from the relevant pH IgG dilution plate to the corresponding assay plate (pH 7.4 and pH 6.0). 5 ul of the appropriate pH assay buffer was added to the total and non-specific wells.
(§2) For multipoint dose response curves % Specific Binding values were plotted versus test purified antibody concentration (scFv or IgG). IC₅₀ values were determined via a sigmoidal dose response inhibition variable slope curve fit (4 parameter logistic equation) using Graphpad Prism Software.

[3] = biological target: T2, recombinant biotinylated human PAR2 …; test: HTRF competition with Dylight650-Par0067 IgG, pH 7.4, IgG
Experimental: as §1, §2

[4] = biological target: T2, recombinant biotinylated human PAR2 …; test: HTRF competition with Dylight650-Par0067 IgG, pH 6.0, IgG
Experimental: as §1, §2

[5] = biological target: T3, recombinant biotinylated rat PAR2 extracellular residues 1-75, N-terminal AviTag, C-terminal Flag and poly … (rat, UniProt Q63645 26-75, not fully specified; biotin on the AviTag (enzymatic biotinylation)); test: Biacore SPR 25 C, pH 6.0
T3 construct: range 1-75; not shown: N-terminal AviTag (Avidity LLC); C-terminal Flag and poly Histidine tags
T3 chain (looked up): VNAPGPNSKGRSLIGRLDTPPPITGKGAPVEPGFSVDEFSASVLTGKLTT
Experimental: (§3) The experiments were carried out using recombinant human, rat and cynomolgus PAR2 with an N-terminal Avi tag and C-terminal Flag-His tags.
(§4) Streptavidin was covalently immobilised to a C1 chip surface using standard amine coupling techniques at a concentration of 4 μg/ml in 10 mM Sodium acetate pH 4.5. A final streptavidin surface of approximately 30-100 RUs was achieved. Recombinant biotinylated PAR2 species (produced in-house) were titrated onto the streptavidin chip surface at 4 μg/ml in HBS-EP+ buffer to enable Fab binding at saturation (Rₘₐₓ). This low level of analyte binding ensured minimal mass transport effects.
(§5) The anti-PAR2 Fabs were serially diluted (0.39 nM-25 nM) in HBS-EP+ buffer pH 7.4 or MES-BS-EP+ pH 6.0 buffer or in MES-BS-EP+ pH 5.6 buffer and flowed over the chip at 50 μl/min, with 3 minutes association and up to 30 minutes dissociation. Multiple buffer-only injections were made under the same conditions to allow for double reference subtraction of the final sensorgram sets, which were analysed using the BiaEval software (version 2.0.1). The chip surface was fully regenerated with pulses of 4 M MgCl₂.

[6] = biological target: T2, recombinant biotinylated human PAR2 …; test: Biacore SPR 25 C, pH 6.0
Experimental: as §3, §4, §5

[7] = biological target: T3, recombinant biotinylated rat PAR2 …; test: Biacore SPR 25 C, pH 7.4
Experimental: as §3, §4, §5

[8] = biological target: T2, recombinant biotinylated human PAR2 …; test: Biacore SPR 25 C, pH 7.4
Experimental: as §3, §4, §5

[9] = biological target: T3, recombinant biotinylated rat PAR2 …; test: Biacore SPR 25 C, pH 6.0
Experimental: as §3, §4, §5

[10] = biological target: T2, recombinant biotinylated human PAR2 …; test: Biacore SPR 25 C, pH 6.0; remark: listed apart in the source
Experimental: as §3, §4, §5

[11] = biological target: T3, recombinant biotinylated rat PAR2 …; test: Biacore SPR 25 C, pH 7.4
Experimental: as §3, §4, §5

[12] = biological target: T2, recombinant biotinylated human PAR2 …; test: Biacore SPR 25 C, pH 7.4; remark: listed apart in the source
Experimental: as §3, §4, §5

[13] = biological target: T2, recombinant biotinylated human PAR2 …; test: Biacore SPR 25 C, pH 6.0; pH 6.0; human PAR2
Experimental: as §3, §4, §5

T2 sequence (P55085 26-75): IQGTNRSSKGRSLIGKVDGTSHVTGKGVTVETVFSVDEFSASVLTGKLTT

B1: PaB670129 IgG1TM (antibody, V domains shown)
VH: EVQLLESGGGLVQPGGSLRLSCAASGFTFSSYAMNWVRQAPGKGLEWVSTISYHGSHISYHDSVHHRFTISRDNSKNTLYLQMNSLRAEDTAVYYCARIHHDPMDVWGQGTLVTVSS
VL: SIELTQPPSVSVSPGQTASITCSGDNLGKKYVQWYQQKPGQSPVLVIYDDSNRPSGIPERFSGSNSGNTATLTISGTQAMDEADYYCQTWDGNPTTGETNVFGGGTKLTVL
notes: IgG1-TM (L234F, L235E, P331S), human lambda light chain; also called ZZ1RUE-F02
IC50 (read off the curve); calcium response to trypsin in presence of PaB670129, human A549 cells [1]: ~0.1 nM | Fold IC50 pH 7.4 (Variant v Par0067) [2]: 67.2 fold | IC50 [3]: 56.1 nM

B2: PaB670148 IgG (antibody, V domains shown)
VH: B1 VH with S56H, H61A, V64H, H100N, H101N
VL: B1 VL with Q88H, D91H, G92H, N93H, T96H, T99H
notes: IgG1-TM (L234F, L235E, P331S), human lambda light chain
Fold IC50 (pH 6.0 v pH 7.4) [2]: 17.4 fold | Fold IC50 pH 7.4 (Variant v Par0067) [2]: 58.1 fold | IC50 [3]: 48.5 nM | IC50 [4]: 845 nM

B3: PaB670151 IgG (antibody, V domains shown)
VH: B1 VH with H54S, H57L, H61A, H65K, H66G, H100N
VL: B1 VL with Q88H, G92H, N93H, P94H, T99H
notes: as for B2
Fold IC50 (pH 6.0 v pH 7.4) [2]: 11.5 fold | Fold IC50 pH 7.4 (Variant v Par0067) [2]: 83.2 fold | IC50 [3]: 69.5 nM | IC50 [4]: 796 nM

B4: PaB670152 IgG (antibody, V domains shown)
VH: B1 VH with H54S, H57L, H61A, H65K, H66G
VL: B1 VL with Q88H, G92H, N93H, P94H, T99H
notes: as for B2
Fold IC50 (pH 6.0 v pH 7.4) [2]: 15.1 fold | Fold IC50 pH 7.4 (Variant v Par0067) [2]: 526 fold | IC50 [3]: 439 nM | IC50 [4]: 6600 nM

B5: PaB670153 IgG (antibody, V domains shown)
VH: B1 VH with S56H, H61A, V64H, H100N, H101N
VL: B1 VL with Q88H, G92H, N93H, P94H, T99H
notes: as for B2
Fold IC50 (pH 6.0 v pH 7.4) [2]: 17.6 fold | Fold IC50 pH 7.4 (Variant v Par0067) [2]: 111 fold | IC50 [3]: 93 nM | IC50 [4]: 1640 nM

B6: PaB670156 IgG (antibody, V domains shown)
VH: B1 VH with H54S, H57L, H61A, H65K, H66G, H100N
VL: B1 VL with N93H, P94H, T95H, V101H
notes: as for B2
Fold IC50 (pH 6.0 v pH 7.4) [2]: 27.2 fold | Fold IC50 pH 7.4 (Variant v Par0067) [2]: 8.4 fold | IC50 [3]: 7 nM | IC50 [4]: 190 nM

B7: PaB670157 IgG (antibody, V domains shown)
VH: B1 VH with H54S, H57L, H61A, H65K, H66G
VL: B1 VL with N93H, P94H, T95H, V101H
notes: as for B2
Fold IC50 (pH 6.0 v pH 7.4) [2]: 59 fold | Fold IC50 pH 7.4 (Variant v Par0067) [2]: 18.9 fold | IC50 [3]: 15.8 nM | IC50 [4]: 932 nM

B8: PaB670158 IgG (antibody, V domains shown)
VH: B1 VH with S56H, H61A, V64H, H100N, H101N
VL: B1 VL with N93H, P94H, T95H, V101H
notes: as for B2
Fold IC50 (pH 6.0 v pH 7.4) [2]: 69.8 fold | Fold IC50 pH 7.4 (Variant v Par0067) [2]: 8.2 fold | IC50 [3]: 6.8 nM | IC50 [4]: 477 nM

B9: PaB670160 IgG (antibody, V domains shown)
VH: B1 VH with H54S, H57L, H61A, H65K, H66G, H100N
VL: B1 VL with Q88H, N93H, P94H, V101H
notes: as for B2
Fold IC50 (pH 6.0 v pH 7.4) [2]: 37.5 fold | Fold IC50 pH 7.4 (Variant v Par0067) [2]: 20.2 fold | IC50 [3]: 16.9 nM | IC50 [4]: 634 nM

B10: PaB670161 IgG (antibody, V domains shown)
VH: B1 VH with H54S, H57L, H61A, H65K, H66G
VL: B1 VL with Q88H, N93H, P94H, V101H
notes: as for B2
Fold IC50 (pH 6.0 v pH 7.4) [2]: 39.6 fold | Fold IC50 pH 7.4 (Variant v Par0067) [2]: 57.4 fold | IC50 [3]: 47.9 nM | IC50 [4]: 1900 nM

B11: PaB670162 IgG (antibody, V domains shown)
VH: B1 VH with S56H, H61A, V64H, H100N, H101N
VL: B1 VL with Q88H, N93H, P94H, V101H
notes: as for B2
Fold IC50 (pH 6.0 v pH 7.4) [2]: 79.5 fold | Fold IC50 pH 7.4 (Variant v Par0067) [2]: 13.7 fold | IC50 [3]: 11.4 nM | IC50 [4]: 906 nM

B12: PaB670048 Fab (Fab, V domains shown)
VH: B1 VH with H54S, H57L, H61A, H65K, H66G, V106H
VL: B1 VL
notes: Fab; also called ZZ1KX4-E11
Kd [5]: 5.12 nM | koff [5]: 0.0205 s⁻¹ | kon [5]: 4e+06 M⁻¹ s⁻¹ | Kd [6]: 2.57 nM | koff [6]: 0.00497 s⁻¹ | kon [6]: 1.94e+06 M⁻¹ s⁻¹ | Kd [7]: 0.586 nM | koff [7]: 0.00307 s⁻¹ | kon [7]: 5.24e+06 M⁻¹ s⁻¹ | Kd [8]: 0.124 nM | koff [8]: 0.000519 s⁻¹ | kon [8]: 4.2e+06 M⁻¹ s⁻¹ | Kd [9]: 4.48 nM | koff [9]: 0.0217 s⁻¹ | kon [9]: 4.84e+06 M⁻¹ s⁻¹ | Kd [10]: 2.49 nM | koff [10]: 0.00458 s⁻¹ | kon [10]: 1.84e+06 M⁻¹ s⁻¹ | Kd [11]: 0.435 nM | koff [11]: 0.00325 s⁻¹ | kon [11]: 7.46e+06 M⁻¹ s⁻¹ | Kd [12]: 0.104 nM | koff [12]: 0.00058 s⁻¹ | kon [12]: 5.59e+06 M⁻¹ s⁻¹

B13: PaB670136 Fab (Fab, V domains shown)
VH: B1 VH with S56H, H61A, V64H, V106H
VL: B1 VL
notes: Fab; also called ZZ1RUF-A01
Kd [5]: 37.5 nM | koff [5]: 0.0589 s⁻¹ | kon [5]: 1.57e+06 M⁻¹ s⁻¹ | Kd [6]: 18.8 nM | Kd [7]: 4.15 nM | koff [7]: 0.0314 s⁻¹ | kon [7]: 7.57e+06 M⁻¹ s⁻¹ | Kd [8]: 0.957 nM | koff [8]: 0.00495 s⁻¹ | kon [8]: 5.17e+06 M⁻¹ s⁻¹ | koff [13]: 14.9 s⁻¹ | kon [13]: 7.92e+08 M⁻¹ s⁻¹

Source: patent publication US20180305450A1 (AstraZeneca / MedImmune, published 2018)
